Experimental data taken from patent publication US20240287527, “VIRAL PROTEIN […] […] AND METHODS OF USE IN DIAGNOSTICS, […] PURPOSES” (AYASS BIOSCIENCE LLC, published 2024).

B1: SB3L (AYA2012004_L) (ssDNA)
DNA: TAGGGAAGAGAAGGACAATGATTTTGGGCGGGTTGAGGTGGGGGAGGAGGAGGTAGTTAGAGTTGACTAGTACATGACCACTTGA
B2: AYA2012004_L-M2 (structured_DNA)
DNA 1: TTTTTTAGGGAAGAGAAGGACAATGATTTTGGGCGGGTTGA
DNA 2: AAAAATAGGGAAGAGAAGGACAATGATTTTGGGCGGGTTGA

How the values were obtained:
[1] = target: SARS-CoV-2 nucleocapsid protein (SARS-CoV-2, UniProt P0DTC9 P0DTC9:1-419); assay: SPR; conditions: tags: AcroBiosystems C5227 / RayBiotech 230-01104
ACE2/ACEH = ACE2/ACEH (Homo sapiens, UniProt Q9BYF1 Q9BYF1:18-740); assay: SPR; conditions: tags: Fc-tag, ACRO Biosystems AC2-H5257; chain copies: 2
[2] = target: SARS-CoV-2 full-length S protein on lentiviral VLP (SARS-CoV-2, UniProt P0DTC2 P0DTC2:14-1273); assay: cell_activity; conditions: protein: virion, tags: GenTarget VLP001, GFP reporter VLP, chain copies: 3 (inferred)

Binder | binding result [1] | binding result (ACE2/ACEH) | activity [2] [% inhibition] | activity ([2]; label: 5'-biotin, two hairpins (predicted)) [% inhibition]
TAGGGAAGAGAAGGACAATGATTTTGGGCGGGTTGA (ssDNA) [AYA2012004_L-M1] | no binding | no binding | ~50 | 
B1 | no binding | no binding |  | ~70
B2 | no binding | no binding | ~60 | 
